In experiment [1] the target is T1, human Bcl-2 (human, UniProt P10415 1-239).
T1 construct: also called wt Bcl-2
Briefly: yeast two-hybrid, beta-galactosidase activity with ONPG.

In another experiment the target is T2, dynein light chain (UniProt P63167 1-89, limits assumed).
T2 construct: also called cytoplasmic dynein light chain
Briefly: yeast two-hybrid, beta-galactosidase activity with ONPG; reference wild-type BimL.

For experiment [2], the target named is T1, human Bcl-2. Briefly: immunoprecipitation with anti-human Bcl-2 from FDC-P1 cells, anti-EE immunoblot.
Experiment [3] has as its target T3, Epstein-Barr virus BHRF-1 protein (Epstein-Barr virus, UniProt P03182 1-191).
T3 sequence: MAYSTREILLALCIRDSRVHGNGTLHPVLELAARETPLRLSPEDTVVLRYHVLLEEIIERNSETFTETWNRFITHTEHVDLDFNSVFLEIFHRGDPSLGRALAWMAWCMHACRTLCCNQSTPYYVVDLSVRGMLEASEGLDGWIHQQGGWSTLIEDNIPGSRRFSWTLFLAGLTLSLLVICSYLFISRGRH
Briefly: immunoprecipitation from co-transfected 293T cells.

Experiment [4] addresses T1, human Bcl-2. Briefly: immunoprecipitation and immunoblot from FDC-P1 cells (FIG. 8B). Background: Immunoblotting shows a protein as a band on a membrane.
For experiment [5], the target named is T1, human Bcl-2. Briefly: immunoprecipitation and immunoblot from FDC-P1 cells.

The record followed here is US20060183687A1 (WALTER AND ELIZA HALL INSTITUTE OF MEDICAL RESEARCH, published 2006).

T1 sequence (P10415 whole entry): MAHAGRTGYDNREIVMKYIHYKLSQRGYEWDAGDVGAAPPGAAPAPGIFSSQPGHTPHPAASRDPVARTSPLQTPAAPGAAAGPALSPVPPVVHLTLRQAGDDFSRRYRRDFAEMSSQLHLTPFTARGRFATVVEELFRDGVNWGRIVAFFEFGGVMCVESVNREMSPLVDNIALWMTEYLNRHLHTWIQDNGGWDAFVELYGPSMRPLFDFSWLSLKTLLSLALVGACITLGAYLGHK
T2 sequence (P63167 whole entry): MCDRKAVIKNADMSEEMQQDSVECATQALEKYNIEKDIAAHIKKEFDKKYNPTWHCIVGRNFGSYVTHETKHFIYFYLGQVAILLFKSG

B1: murine BimL (wild-type) (other)
chain: MAKQPSDVSSECDREGGQLQPAERPPQLRPGAPTSLQTEPQDRSPAPMSCDKSTQTPSPPCQAFNHYLSAMASIRQSQEEPEDLRPEIRIAQELRRIGDEFNETYTRRVFANDYREAEDHPQMVILQLLRFIFRLVWRRH
notes: also called wild-type BimL; mBIM L
As for B1, in the experiment with human Bcl-2 [1], the binding result was “binds”.

B2: BimL mutant S53P (other)
chain: MAKQPSDVSSECDREGGQLQPAERPPQLRPGAPTSLQTEPQDRSPAPMSCDKPTQTPSPPCQAFNHYLSAMASIRQSQEEPEDLRPEIRIAQELRRIGDEFNETYTRRVFANDYREAEDHPQMVILQLLRFIFRLVWRRH
Consider B2, for which, in the experiment with dynein light chain, the “activity compared to wild-type BimL” value was under 0.1%. Also, in the experiment with human Bcl-2 [1], the binding result was “binds”.

B3: BimL mutant T54A (other)
chain: MAKQPSDVSSECDREGGQLQPAERPPQLRPGAPTSLQTEPQDRSPAPMSCDKSAQTPSPPCQAFNHYLSAMASIRQSQEEPEDLRPEIRIAQELRRIGDEFNETYTRRVFANDYREAEDHPQMVILQLLRFIFRLVWRRH
As to B3, the “activity compared to wild-type BimL” value in the experiment with dynein light chain is under 0.1%. For the same molecule, the binding result in the experiment with human Bcl-2 [1] is given as “binds”.

B4: BimL mutant D51G (other)
chain: MAKQPSDVSSECDREGGQLQPAERPPQLRPGAPTSLQTEPQDRSPAPMSCGKSTQTPSPPCQAFNHYLSAMASIRQSQEEPEDLRPEIRIAQELRRIGDEFNETYTRRVFANDYREAEDHPQMVILQLLRFIFRLVWRRH
notes: also called D51G mutant
For B4, the binding result with human Bcl-2 [1] is reported as “binds”.

B5: BimL double mutant T54I/N65S (other)
chain: MAKQPSDVSSECDREGGQLQPAERPPQLRPGAPTSLQTEPQDRSPAPMSCDKSIQTPSPPCQAFSHYLSAMASIRQSQEEPEDLRPEIRIAQELRRIGDEFNETYTRRVFANDYREAEDHPQMVILQLLRFIFRLVWRRH
notes: also called T541/N65S; double mutant T541/N65S
Regarding B5, the “activity compared to wild-type BimL” value with dynein light chain was under 0.1%. Moreover, in the experiment with human Bcl-2 [1], the binding result is listed as “binds”.

B6: EE-tagged BimS (other)
chain: EYMPMEMAKQPSDVSSECDREGGQLQPAERPPQLRPGAPTSLQTEPQASIRQSQEEPEDLRPEIRIAQELRRIGDEFNETYTRRVFANDYREAEDHPQMVILQLLRFIFRLVWRRH
For the molecule B6, in the experiment with human Bcl-2 [2], the binding result was “binds”.

B7: EE-tagged BimL (Glu-Glu epitope-tagged mouse BimL) (other)
chain: EYMPMEMAKQPSDVSSECDREGGQLQPAERPPQLRPGAPTSLQTEPQDRSPAPMSCDKSTQTPSPPCQAFNHYLSAMASIRQSQEEPEDLRPEIRIAQELRRIGDEFNETYTRRVFANDYREAEDHPQMVILQLLRFIFRLVWRRH
notes: N-terminal EE tag from a pEF vector derivative; also called EE-BimL; EE BimL
As for B7, the binding result in experiment [3] was “no binding”; with human Bcl-2 [4], “binds”.

B8: EE-tagged BimEL (other)
chain: EYMPMEMAKQPSDVSSECDREGGQLQPAERPPQLRPGAPTSLQTEPQGNPDGEGDRCPHGSPQGPLAPPASPGPFATRSPLFIFVRRSSLLSRSSSGYFSFDTDRSPAPMSCDKSTQTPSPPCQAFNHYLSAMASIRQSQEEPEDLRPEIRIAQELRRIGDEFNETYTRRVFANDYREAEDHPQMVILQLLRFIFRLVWRRH
As for B8, the binding result with human Bcl-2 [2] is reported as “binds”.

B9: EE-BimL ΔBH3 mutant (other)
chain: EYMPMEMAKQPSDVSSECDREGGQLQPAERPPQLRPGAPTSLQTEPQDRSPAPMSCDKSTQTPSPPCQAFNHYLSAMASIRQSQEEPEDLRPEIRIAQEALFNETYTRRVFANDYREAEDHPQMVILQLLRFIFRLVWRRH
notes: also called EE-Bim ΔBH3
Turning to B9, in the experiment with human Bcl-2 [5], the binding result is recorded as “no binding”.
